Reference: patent US20210292393A1 (published 2021)
Where a chain is given by its changes, count along the chain named.

Key:
[1] = biological target: SARS-CoV-2 full length spike protein (wild-type), conjugated to optically encoded beads (SARS-CoV-2, UniProt P0DTC2 14-1208)
[2] = biological target: SARS-CoV-2 full length spike protein (wild type) (SARS-CoV-2, UniProt P0DTC2 14-1208)
[3] = biological target: SARS-CoV spike protein (full-length trimeric, on beads) (SARS-CoV, UniProt P59594 14-1190)

B1: antibody 523 (antibody, V domains shown)
VH: EVQLVESGGVSVQPGGSLRLSCAASGFSFNTYDMHWVRQGTGKGLEWVSGIGTAGDTYYSDSVKGRCTISRDNAKNSLHLLVKSVRAADTAVYYCARGVGGIIDYWGQGTLVTVSS
VL: NFVLSQPHSVSESPGKTVTISCTGNSGSIATKYVQWFQQRPGSAPTTVIYEDNQRPSGVPDRFSGSSDSSSNSASLTISGLKTEDEAHYYCQSYHNRRWVFGGGTKLTVL
Question: For B1, which “median fluorescence fold over isotype” value [1] is on record?
Answer: 30.8 fold over isotype

B2: antibody 527 (antibody, V domains shown)
VH: QLQLQESGPGLVKPSETLSLTCTVSGGSISSSSYYWGWIRQPPGKGLEWIGSIYYSGSTYYNPSLKSRVTISVDTSKNQFSLKLSSVTAADTAMYYCASHVVVIASSYWCFDLWGRGTLVTVSS
VL: QSALTQPASVSGSPGQSITISCTGTSSDVGGYNYVSWYQQHPGKAPKLMIYDVSNRPSGVSNRFSGSKSGNTASLTISGLQAEDEADYYCSSYTSISTWVFGGGTKLTVL
Question: How did the “median fluorescence fold over isotype” value [1] turn out when B2 was run?
Answer: 148 fold over isotype

B3: antibody 323 (antibody, V domains shown)
VH: QVQLVQSGAEVKKPGASVKVSCKVSGYTLTELSMHWVRQAPGKGLEWMGGFDPEDGETIYAQKFQGRVTMTEDTSTDTAYMELSSLRSEDTAVYYCATSTIFAPGGWFDPWGQGTLVTVSS
VL: QSALTQPASVSGSPGQSITISCTGTSSDVGSYNLVSWYQQHPGKAPKLMIYEVSKRPSGVSNRFSGSKSGNTASLTISGLQAEDEADYYCCSYAGSTHYVFGTGTKVTVL
Question: For B3, which “median fluorescence intensity fold over isotype” value [2] is on record?
Answer: 994 fold over isotype control

B4: antibody 344 (antibody, V domains shown)
VH: QVQLVESGGGVVQPGRSLRLSCAASGFTFSSYAMHWVRQAPGKGLEWMAVISYDGSNKYYADSVKGRFTISRDNSKNTLYLQMNSLRAEDTAVYFCAKGYSGSYYEPFDYWGQGTLVTVSS
VL: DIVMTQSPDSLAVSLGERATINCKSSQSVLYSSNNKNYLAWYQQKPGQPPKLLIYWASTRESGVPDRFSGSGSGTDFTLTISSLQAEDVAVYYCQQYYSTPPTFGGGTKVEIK
Question: For B4, which “median fluorescence intensity fold over isotype” value [2] is on record?
Answer: 404 fold over isotype control

B5: antibody 348 (antibody, V domains shown)
VH: QVQLVQSGSELKKPGASVKVSCKASGYTFTSYAMNWVRQAPGQGLEWMGWINTNTGNPTYAQGFTGRFVFSLDTSVSTAYLQISSLKAEDTAVYYCARDHELPNTSSWFGHFEYWGQGTLVTVSS
VL: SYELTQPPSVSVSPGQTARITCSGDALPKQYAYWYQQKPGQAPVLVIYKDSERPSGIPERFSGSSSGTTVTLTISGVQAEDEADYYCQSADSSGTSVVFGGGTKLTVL
Question: Which “median fluorescence intensity fold over isotype” value [2] does the source give for B5 here?
Answer: 869 fold over isotype control

B6: antibody 345 (antibody, V domains shown)
VH: QVQLQESGPGLVKPSQTLSLTCTVSGGSISSGDYYWSWIRQPPGKGLEWIGYIYYSGSTYYNPSLKSRVTISVDTSKNQFSLKLSSVTAADTAVYYCARVGMVDNWNFEGNWFDPWGQGTLVTVSS
VL: QSALTQPRSVSGSPGQSVTISCTGTSSDVGGYNYVSWYQQHPGKAPKLMIYDVSKRPSGVPDRFSGSKSGNTASLTISGLQAEDEADYYCCSYAGSVVFGGGTKLTVL
Question: How did the “median fluorescence intensity fold over isotype” value [2] turn out when B6 was run?
Answer: 562 fold over isotype control

B7: antibody 537 (antibody, V domains shown)
VH: QVQLQQWGAGLLKPSETLSLTCAVYGGSFSGYYWSWIRQPPGKGLEWIGEINHSGSTNYNPSLKSRVTISVDTSKNQFSLKLSSVTAADTAVYYCARGLYYDMGGGFDYWGQGTLVTVSS
VL: not shown
Question: For B7, which “bead binding signal, fold over isotype control” value (from here on “bead binding signal, fold”) [3] is on record?
Answer: 1.04 fold over isotype

B8: antibody 363 (antibody, V domains shown)
VH: EVQLLESGGGLVQPGGSLRLSCAASGFTFSTYAMSWVRQAPGKGLEWVSAISGSGGSTYYADSVKGRFTISRDNSKNTLYLQMNSLRAEDTAVYYCASGYSPDYWGQGTLVTVSS
VL: not shown
Question: With B8 as the binder, how does the “median fluorescence intensity fold over isotype” value [2] read?
Answer: 1030 fold over isotype control

B9: antibody 504 (antibody, V domains shown)
VH: QVQLVESGGGVVQPGRSLRLSCAASGFTFSSYGMHWVRQAPGKGLEWVAVISYDGSNKYYADSVKGRFTISRDNSKNTLYLQMNSLRAEDTAVYYCAKGGGGGYCSGGSCYSHYFDYWGQGTLVTVSS
VL: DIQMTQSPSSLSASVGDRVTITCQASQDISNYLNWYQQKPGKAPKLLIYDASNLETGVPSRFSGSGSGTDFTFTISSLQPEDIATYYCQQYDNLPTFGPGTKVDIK
Question: With B9 as the binder, how does the “median fluorescence fold over isotype” value [1] read?
Answer: 709 fold over isotype

B10: antibody 533 (antibody, V domains shown)
VH: GVQLVESGGVVVQPGGSLRLSCAASGFSFDDYTMHWVRQAPGKGLEWVSLVSWDGGTTYYTDSVKGRFTISRDNSKNSLYLQMNSLRTEDTALYFCAKDSGRIVPAATFDYWGQGTLVTVSS
VL: DIQMTQSSSSLSASVGDRVTITCRASQDISNYLAWFQQKPGKAPKSLIYAASSLQSGVPSKFSGSGSGTDFTLTISSLQPEDFATYYCQQYYTYPLTFGGGTKVEIK
Question: Which “bead binding signal, fold” value [3] does the source give for B10 here?
Answer: 1.23 fold over isotype

B11: antibody 543 (antibody, V domains shown)
VH: EVQLVESGGGLVQPGRSLRLSCAASGFTFHDYAMHWVRQAPGKGLEWVSGISWNSGSIGYADSVKGRFTISRDNAKNSLYLQMNSLRAEDTALYYCAKDTFGSSSWYRGDSYYYYGMDVWGQGTTVTVSS
VL: QSALTQPASVSGSPGQSITISCTGTSSDVGGYNYVSWYQQHPGKAPKLMIYEVSNRPSGVSNRFSGSKSGNTASLTISGLQAEDEADYYCSSYTSSSTQRYVVFGGGTKLTVL
Question: Which “bead binding signal, fold” value [3] does the source give for B11 here?
Answer: 1.03 fold over isotype

B12: antibody 522 (antibody, V domains shown)
VH: EVQLVESGGGLVQPGGSLRLSCAASGFNFSSYSMNWVRQAPGKGLEWVSYISSSSSTIYYADSVKGRFTISRDNAKNSLYLQMNSLRDEDTAVYYCARGPEWDIVVVQAENWFDPWGQGTLVTVSS
VL: SYELTQPPSVSVSPGQTARITCSGDALPKQYVYWYQQKPGQAPVLVIYKDSERPSGIPERFSGSSSGTTVTLTISGVQAEDEADYYCQSADSSGTYRGVFGGGTKLTVL
Question: For B12, which “median fluorescence fold over isotype” value [1] is on record?
Answer: 433 fold over isotype

B13: antibody 316 (antibody, V domains shown)
VH: QVHLVESGGGVVQPGRSLRLSCAASGFTLTAYAMHWVRQAPGKRLEWVALISYDGSVKKYADSVKGRITVSGDTSTNTLHLQMNSLRADDTAVYYCVRGGVSGPNSFDLWGQGTMVTVSS
VL: DVVMTQSPLSLPVTLGQPASMSCRSSQSLEYSDGNTYVNWFHQRPGQSPRRLIYKVSYRDSGVPDRFSGSGSGTDFTLQISRVEAEDVGIYYCMQGTHWPVTFGQGTKVEIK
Question: B13 was tested. Which “median fluorescence intensity fold over isotype” value [2] did it give?
Answer: 442 fold over isotype control

B14: antibody 509 (antibody, V domains shown)
VH: QVQLVESGGGVVQPGRSLRLSCAASGFNLSSYAMHWVRQASGKGLEWVSLISYDGSIKYYTDSVKGRFTVSGDNSKNTLFLQMNSLRADDSALYYCVRGGVSGPNSFDLWGQGTTVTVSS
VL: B13 VL with M21I, E30V, H42Q, Y58I, D60A, T77A, Q79K, I90V
Question: B14 was tested. Which “median fluorescence fold over isotype” value [1] did it give?
Answer: 496 fold over isotype

B15: antibody 517 (antibody, V domains shown)
VH: B14 VH with S31N, L109M
VL: B13 VL with M21I, E30V, H42Q, K55Q, Y58I, D60A, T77A, Q79K, I90V
Question: Which “median fluorescence fold over isotype” value [1] does the source give for B15 here?
Answer: 434 fold over isotype

B16: antibody 327 (antibody, V domains shown)
VH: B14 VH with S31N, A88P, L109M
VL: B13 VL with M21I, E30V, H42Q, K55Q, Y58I, D60A, T77A, Q79K
Question: With B16 as the binder, how does the “median fluorescence intensity fold over isotype” value [2] read?
Answer: 413 fold over isotype control

B17: antibody 541 (antibody, V domains shown)
VH: QVQLVQSGAEVKKPGASVKVSCKASGYTFTSYYVHWVRQAPGQSLEWMGVISPSTGSTTYAQNFQGRVTMTRDTSTTTVYMELSSLRSEDTAVYYCARDDYYDSTRYFDLWGRGTLVTVSS
VL: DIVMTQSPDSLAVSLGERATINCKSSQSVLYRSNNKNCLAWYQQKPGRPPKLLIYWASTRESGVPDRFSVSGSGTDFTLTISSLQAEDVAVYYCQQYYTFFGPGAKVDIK
Question: Which “bead binding signal, fold” value [3] does the source give for B17 here?
Answer: 1.2 fold over isotype

B18: antibody 317 (antibody, V domains shown)
VH: QVQLVQSGAEVKKPGASVKVSCKVSGYTLTELSMHWVRQAPGKGLEWMGGFDPEDGETIYAQKFQGRVTMTEDTSTDTAYMELSSLRSEDTAVYYCASSPAAAGTSQYYYYYGMDVWGQGTTVTVSS
VL: not shown
Question: For B18, which “median fluorescence intensity fold over isotype” value [2] is on record?
Answer: 890 fold over isotype control

B19: antibody 340 (antibody, V domains shown)
VH: QVQLVQSGAEVKKPGASVKVSCKASGYTFTSYDINWVRQATGQGLEWMGWMNPNSGNTGYAQKFQGRVTMTRNTSISTAYMELSSLRSEDTAVYYCARGRYCTGGVCWGDWYFDLWGRGTLVTVSS
VL: QSVLTQPPSVSGAPGQRVTISCTGSSSNIGAGYDVHWYQQLPGTAPKFLIYGNSNRPSGVPDRFSGSKSGTSASLAITGLQAEDEADYYCQSYDSSLSGPVFGGGTKLTVL
Question: B19 was tested. Which “median fluorescence intensity fold over isotype” value [2] did it give?
Answer: 547 fold over isotype control

B20: antibody 331 (antibody, V domains shown)
V domain 1: QITLKESGPTLVKPTETLTLTCSFSGFSLTKTGEAAGWIRQAPGRALEWVTVIFWDDDKRYSPSLQNRISVTKDTSKNQVVLRMTNVARFDTGTYFCWAMGGPGKEYFGQGTLVAVSS
V domain 2: QSVLTQPPSVSGAPGQRVTISCTGTSSSIGPYSDVHWYQHVSGKAPRLLIFGNSNRPSGVPDRFSGSKSGTSASLVIAGLQAEDEADYYCQSYDSSLGEIYVFGTGTTVTVL
Question: B20 was tested. Which “median fluorescence intensity fold over isotype” value [2] did it give?
Answer: 850 fold over isotype control

B21: antibody 339 (antibody, V domains shown)
V domain 1: B20 V domain 1 with K31R, N67S, I69L, S70T, R83T, G93A, L113Q
V domain 2: B20 V domain 2
Question: B21 was tested. Which “median fluorescence intensity fold over isotype” value [2] did it give?
Answer: 874 fold over isotype control

B22: antibody 320 (antibody, V domains shown)
VH: QVQLVQSGAEVKKPGASVKVSCKASGYTFTSYGISWVRQAPGQGLEWMGWISAYNGNTNYAQKLQGRVTMTTDTSTRTAYMELRSLRSDDTAVYYCARVGCYYDSSGYSCAENFQHWGQGTLVTVSS
VL: QSVLTQPPSVSGAPGQRVTISCTGSSSNIGAGYDVHWYQQLPGTAPKLLIYGNSNRPSGVPDRFSGSKSGTSASLAITGLQAEDEADYYCQSYDSSLSALFGGGTKLTVL
Question: For B22, which “median fluorescence intensity fold over isotype” value [2] is on record?
Answer: 1200 fold over isotype control

B23: antibody 329 (antibody, V domains shown)
VH: EVQLVESGGGLVQPGGSLRLSCAASGFTFSSYWMHWVRQAPGKGLVWVSRINSDGSSTSYADSVKGRFTISRDNAKNTLYLQMNSLRAEDTAVYYCAREGIVATITLDYWGQGTLVTVSS
VL: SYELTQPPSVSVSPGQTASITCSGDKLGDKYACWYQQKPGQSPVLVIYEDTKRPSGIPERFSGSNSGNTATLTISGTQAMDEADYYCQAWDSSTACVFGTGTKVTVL
Question: With B23 as the binder, how does the “median fluorescence intensity fold over isotype” value [2] read?
Answer: 497 fold over isotype control

B24: antibody 326 (antibody, V domains shown)
VH: QITLKESGPTLVKPTQTLTLTCTFSGFSLNTSGVGVGWIRQPPGKALEWLSLIFWNDDKRYSPSLRSRLTITKDTSKNQVVLTMTNMDPVDTATYFCAHRNSGWSLKFDSWGQGSLVTVSA
VL: DIQMTQSPSSVSASVGDRVTITCRARQGISSWLVWYQQKPGKAPKLLIFGASSLQSGVPSRFNASGTGTEFTLTISSLQPEDFATYYCQQADSFPITFGQGTRLEIK
Question: For B24, which “median fluorescence intensity fold over isotype” value [2] is on record?
Answer: 193 fold over isotype control
